Measured values from patent US20260241049A1, “Radiopharmaceutical Compositions Targeting Glypican-3 and Uses Thereof” (RayzeBio, Inc., priority 2023, published 2026).
Starred links: 1 amine or outer side, 2 acyl side, 3 side chain; linkers in the order of their positions; H or OH if unused. Positions of bridges follow the written chain, without caps; N, C: chain ends. Non-standard residues stand in square brackets, D forms with d. Residues, ends and D or L forms follow the SMILES beside them. Groups on a side chain read outwards from the residue. Primed or numbered codes have the meaning given here. *: point of attachment. YaeCOpipzaa = 2-amino-3-(4-(2-(4-(carboxymethyl)piperazine-1-carboxamido)ethoxy)phenyl)propanoic acid, O=C(NCCOc1ccc(C[C@H](N[*:1])C(=O)[*:2])cc1)N1CCN(CC(=O)[*:3])CC1; F4aaopipzaa = 2-amino-3-(4-(2-(4-(carboxymethyl)piperazin-1-yl)-2-oxoethoxy)phenyl)propanoic acid, O=C(COc1ccc(C[C@H](N[*:1])C(=O)[*:2])cc1)N1CCN(CC(=O)[*:3])CC1; DOTA‑Lu = DOTA-lutetium(175) amide on the side-chain amine, O=C([O-])CN1CCN(CC(=O)[O-])CCN(CC(=O)*)CCN(CC(=O)[O-])CC1.[175Lu+3]; MeHseMe(3) = N-methyl-O-methyl-homoserine, 4-methoxy-2-(methylamino)butanoic acid, COCC[C@@H](C(=O)[*:2])N(C)[*:1]; Thr(Me) = O-methyl threonine, (3R)-2-amino-3-methoxybutanoic acid, CO[C@H](C)[C@H](N[*:1])C(=O)[*:2]; F4aao = 4-(carboxymethoxy)-L-phenylalanine, O=C([C@H](Cc1ccc(OCC(=O)[*:3])cc1)N[*:1])[*:2]; DOTA‑Lu″ = DOTA chelate of lutetium (175Lu), attached as an amide to the side-chain amine; MeHseMe = N-methyl-O-methyl-L-homoserine, COCC[C@@H](C(=O)[*:2])N(C)[*:1]; Thr(Me)(3) = TMe, O-methyl-L-threonine, CO[C@H](C)[C@H](N[*:1])C(=O)[*:2]; Phe(4-(1-Me-pyrazol-4-yl)) = Cn1cc(-c2ccc(C[C@H](N)C(=O)O)cc2)cn1; TMe = O-methyl-L-threonine, CO[C@H](C)[C@H](N[*:1])C(=O)[*:2]; NMeAla(isoquinolin-7-yl) = CN[C@@H](Cc1ccc2ccncc2c1)C(=O)O; DOTA = O=C(O)CN1CCN(CC(=O)O)CCN(CC(=O)*)CCN(CC(=O)O)CC1; Phe(4-CH2COOH) = N[C@@H](Cc1ccc(CC(=O)O)cc1)C(=O)O; 3Pal(6-Ph) = N[C@@H](Cc1ccc(-c2ccccc2)nc1)C(=O)O; Phe(4-COOH) = N[C@@H](Cc1ccc(C(=O)O)cc1)C(=O)O; Phe(4-CH2NH2) = NCc1ccc(C[C@H](N)C(=O)O)cc1; Piperazinyl(4-CH2COOH) = O=C(O)CN1CCN(*)CC1; NMe2Nal = CN[C@@H](Cc1ccc2ccccc2c1)C(=O)O; AEF = NCCOc1ccc(C[C@H](N)C(=O)O)cc1; NMeI = CC[C@H](C)[C@H](NC)C(=O)O; NMeQ = CN[C@@H](CCC(N)=O)C(=O)O; NMehSer = CN[C@@H](CCO)C(=O)O; NMeK = CN[C@@H](CCCCN)C(=O)O; NMeC = CN[C@@H](CS)C(=O)O; Carboxymethyl = O=C(O)C*; NMeA = CN[C@@H](C)C(=O)O; CO = O=C([*:1])[*:2]

What was measured:
Human Glypican3-Fc = Human Glypican3-Fc (Homo sapiens, UniProt P51654); experiment: SPR binding to Glypican-3, Method B-2 (Glypican3-Fc captured by anti-human IgG (Fc) antibody on CM3 chip); conditions: SPR method B-2
Protocol: (§1) A CM3 sensor chip (Cytiva) was inserted into a Biacore T200 (Cytiva), primed three times with a running buffer: HBS-P-+, pH 7.4 (Cytiva), and equilibrated at a flow rate of 30 μL/min. Using the Anti-Fc Capture Kit (Cytiva), 50 LL each of 60 mM EDC solution (Cytiva) and 650 mM NHS solution (Cytiva) were mixed, and then reacted at a flow rate of 10 μL/min for 420 seconds, 150 μL of […] Anti-human IgG (Fc) Antibody solution was prepared by diluting with 10 mM acetic acid solution (pH 5.0), reacted at a flow rate of 10 μL/min for 420 seconds, and immobilized on a CM3 sensor chip. After immobilization, 1.0 M ethanolamine aqueous solution (Cytiva) was allowed to react for 420 seconds at a flow rate of 10 μL/min for capping. Human Glypican3-Fc (ACRO Biosystems, GP3-H5258) was allowed to react for 60 seconds at a flow rate of 10 μL/min. After capturing human Glypican3-Fc, a peptide solution prepared to 10 mM in DMSO solution was diluted with a running buffer to a final concentration of 10 μM. After that, 5 serial dilution series (100 nM, 50 nM, 25 nM, 10 nM, 5 nM) of peptide solutions were prepared. Using the above samples, peptide kinetics for Glypican3 was obtained by SPR measurement. Kinetics evaluation of Glypican3 was performed by SPR measurements at a flow rate of 10 μL/min. setting the association time to 120 seconds and the disassociation time to 600 seconds.
The obtained data by Method B-1, Method B-2, Method B-3 and Method B-4 were analyzed by follow. Single Cycle Kinetics was used as the kinetics evaluation model, and curve fitting was performed using Biacore T200 Evaluation Software Version 3.0 (Cytiva). The obtained sensorgram was subjected to curve fitting by the method of least squares and obtained KD values of the macrocyclic peptides in this disclosure for Glypican 3 protein are shown in Table 18.

[1] = biological target: T1, Human Glypican3-Fc (ACRO Biosystems, GP3-H5258) (human, UniProt P51654 25-559); experiment: SPR (Biacore T200), Method B-2: human Glypican3-Fc captured by anti-human Fc on CM3 chip, peptide as analyte
T1 construct: Bought fusion protein, captured in Methods B-2, B-3 and B-4; Catalogue number is printed only in Method B-2; not shown: Fc part of the bought fusion
Protocol: as §1, with “After that, 5 serial dilution series (100 nM, 50 nM, 25 nM, 10 nM, 5 nM) of peptide solutions were prepared.” left out
The obtained data by Method B-1, Method B-2, Method B-3 and Method B-4 were analyzed by follow. Single Cycle Kinetics was used as the kinetics evaluation model, and curve fitting was performed using Biacore T200 Evaluation Software Version 3.0 (Cytiva).

Molecule: CC[C@H](C)[C@@H]1NC(=O)[C@H](Cc2ccc(C(=O)O)cc2)NC(=O)[C@H](CCC(N)=O)N(C)C(=O)[C@H](CC(=O)O)NC(=O)[C@H](CCOC)N(C)C(=O)[C@H](CCCCNC(=O)CN2CCN(CC(=O)O)CCN(CC(=O)O)CCN(CC(=O)O)CC2)N(C)C(=O)CSC[C@@H](C(N)=O)N(C)C(=O)[C@H](Cc2ccc(-c3ccccc3)nc2)NC(=O)CNC(=O)[C@H](Cc2ccc3ccccc3c2)N(C)C(=O)[C@H](Cc2ccc(CC(=O)O)cc2)NC(=O)[C@H]([C@@H](C)CC)NC1=O [Lu-C-21] ({CH2CO}-[NMeK](DOTA)[NMehSer](Me)D[NMeQ][Phe(4-COOH)]II[Phe(4-CH2COOH)][NMe2Nal]G[3Pal(6-Ph)][NMeC]-NH2; thioether N-12)
- Kd (Human Glypican3-Fc): 1.04 nM

Molecule: CC[C@H](C)[C@@H]1NC(=O)[C@H](Cc2ccc(C(=O)O)cc2)NC(=O)[C@H](CCC(N)=O)N(C)C(=O)[C@H](CC(=O)O)NC(=O)[C@H](CCC(N)=O)N(C)C(=O)[C@H](CCC(N)=O)N(C)C(=O)CSC[C@@H](C(N)=O)N(C)C(=O)[C@H](Cc2ccc(-c3cnn(C)c3)cc2)NC(=O)CNC(=O)[C@H](Cc2ccc3ccccc3c2)N(C)C(=O)[C@H](Cc2ccc(OCCNC(=O)CN3CCN(CC(=O)O)CCN(CC(=O)O)CCN(CC(=O)O)CC3)cc2)NC(=O)[C@H]([C@@H](C)CC)NC1=O [Lu-C-28] ({CH2CO}-[NMeQ][NMeQ]D[NMeQ][Phe(4-COOH)]II[AEF](DOTA)[NMe2Nal]G[Phe(4-(1-Me-pyrazol-4-yl))][NMeC]-NH2; thioether N-12)
- Kd (Human Glypican3-Fc): 1.8 nM

Molecule: CC[C@H](C)[C@@H]1NC(=O)[C@H]([C@@H](C)OC)NC(=O)[C@H](Cc2ccc(C(=O)O)cc2)NC(=O)[C@H](CCC(N)=O)N(C)C(=O)[C@H](CC(=O)O)NC(=O)[C@H](CCOC)N(C)C(=O)[C@H](CCC(N)=O)N(C)C(=O)CSC[C@@H](C(N)=O)N(C)C(=O)[C@H](Cc2ccc(-c3ccccc3)nc2)NC(=O)CNC(=O)[C@H](Cc2ccc3ccccc3c2)N(C)C(=O)[C@H](Cc2ccc(CNC(=O)N3CCN(CC(=O)O)CC3)cc2)NC1=O [Conjugate 2-20] ({CH2CO}-[NMeQ][NMehSer](Me)D[NMeQ][Phe(4-COOH)]T(Me)I[Phe(4-CH2NH2)]([CO-Piperazinyl(4-CH2COOH)])[NMe2Nal]G[3Pal(6-Ph)][NMeC]-NH2; thioether N-12)
- Kd (Human Glypican3-Fc): 0.7 nM

Molecule: CC[C@H](C)[C@@H]1NC(=O)[C@H](Cc2ccc(C(=O)O)cc2)NC(=O)[C@H](CCC(N)=O)N(C)C(=O)[C@H](CC(=O)O)NC(=O)[C@H]([C@@H](C)CC)N(C)C(=O)[C@H](CCCCNC(=O)[C@@H](Cc2ccccc2)NC(=O)CN2CCN(CC(=O)O)CCN(CC(=O)O)CCN(CC(=O)O)CC2)N(C)C(=O)CSC[C@@H](C(N)=O)N(C)C(=O)[C@H](Cc2ccc(-c3ccccc3)nc2)NC(=O)CNC(=O)[C@H](Cc2ccc3ccncc3c2)N(C)C(=O)[C@H](Cc2ccc(OCC(=O)O)cc2)NC(=O)[C@H]([C@@H](C)CC)NC1=O [Lu-C-41] ({CH2CO}-[NMeK]([dF-DOTA])[NMeI]D[NMeQ][Phe(4-COOH)]IIY(Carboxymethyl)[NMeAla(isoquinolin-7-yl)]G[3Pal(6-Ph)][NMeC]-NH2; thioether N-12)
- Kd (Human Glypican3-Fc): 0.8 nM

Molecule: {CH2CO}-[NMeK](DOTA‑Lu″)[MeHseMe(3)]D[NMeQ][Phe(4-COOH)]II[Phe(4-CH2COOH)][NMe2Nal]G[Phe(4-(1-Me-pyrazol-4-yl))][NMeC]-NH2 (thioether N-12) [Lu-C-22]
- Kd [1]: 1.99 nM

Molecule: {CH2CO}-[NMeQ][NMeQ]D[NMeK](DOTA‑Lu″)[Phe(4-COOH)]II[Phe(4-CH2COOH)][NMe2Nal]G[Phe(4-(1-Me-pyrazol-4-yl))][NMeC]-NH2 (thioether N-12) [Lu-C-26]
- Kd [1]: 2.52 nM

B1: Macrocyclic peptide of Example 2-22 (SEQ ID No. 40) (peptide)
peptide: {CH2CO}-[NMeQ][MeHseMe]D[NMeQ][Phe(4-COOH)][Thr(Me)(3)]I[F4aaopipzaa][NMe2Nal]G[3Pal(6-Ph)][NMeC]-NH2
modifications: thioether N-12
SMILES: CC[C@H](C)[C@@H]1NC(=O)[C@H]([C@@H](C)OC)NC(=O)[C@H](Cc2ccc(C(=O)O)cc2)NC(=O)[C@H](CCC(N)=O)N(C)C(=O)[C@H](CC(=O)O)NC(=O)[C@H](CCOC)N(C)C(=O)[C@H](CCC(N)=O)N(C)C(=O)CSC[C@@H](C(N)=O)N(C)C(=O)[C@H](Cc2ccc(-c3ccccc3)nc2)NC(=O)CNC(=O)[C@H](Cc2ccc3ccccc3c2)N(C)C(=O)[C@H](Cc2ccc(OCC(=O)N3CCN(CC(=O)O)CC3)cc2)NC1=O
- Kd [1]: 0.8 nM

B2: Macrocyclic peptide of Example 2-23 (SEQ ID No. 43) (peptide)
peptide: {CH2CO}-[NMeA][NMeQ]D[NMeQ][Phe(4-COOH)]II[Phe(4-COOH)][NMe2Nal]G[3Pal(6-Ph)][NMeC]-NH2
modifications: thioether N-12
SMILES: CC[C@H](C)[C@@H]1NC(=O)[C@H](Cc2ccc(C(=O)O)cc2)NC(=O)[C@H](CCC(N)=O)N(C)C(=O)[C@H](CC(=O)O)NC(=O)[C@H](CCC(N)=O)N(C)C(=O)[C@H](C)N(C)C(=O)CSC[C@@H](C(N)=O)N(C)C(=O)[C@H](Cc2ccc(-c3ccccc3)nc2)NC(=O)CNC(=O)[C@H](Cc2ccc3ccccc3c2)N(C)C(=O)[C@H](Cc2ccc(C(=O)O)cc2)NC(=O)[C@H]([C@@H](C)CC)NC1=O
- Kd [1]: 1.5 nM

B3: Macrocyclic peptide of Example 2-19 (SEQ ID No. 37) (peptide)
peptide: {CH2CO}-[NMeQ][MeHseMe]D[NMeQ][Phe(4-COOH)][Thr(Me)]I[YaeCOpipzaa][NMe2Nal]G[3Pal(6-Ph)][NMeC]-NH2
modifications: thioether N-12
SMILES: CC[C@H](C)[C@@H]1NC(=O)[C@H]([C@@H](C)OC)NC(=O)[C@H](Cc2ccc(C(=O)O)cc2)NC(=O)[C@H](CCC(N)=O)N(C)C(=O)[C@H](CC(=O)O)NC(=O)[C@H](CCOC)N(C)C(=O)[C@H](CCC(N)=O)N(C)C(=O)CSC[C@@H](C(N)=O)N(C)C(=O)[C@H](Cc2ccc(-c3ccccc3)nc2)NC(=O)CNC(=O)[C@H](Cc2ccc3ccccc3c2)N(C)C(=O)[C@H](Cc2ccc(OCCNC(=O)N3CCN(CC(=O)O)CC3)cc2)NC1=O
- Kd [1]: 0.5 nM

B4: Macrocyclic peptide of Example 2-18 (SEQ ID No. 36) (peptide)
peptide: {CH2CO}-[NMeQ][MeHseMe]D[NMeQ][Phe(4-COOH)][Thr(Me)(3)]I[F4aao][NMeAla(isoquinolin-7-yl)]G[Phe(4-(1-Me-pyrazol-4-yl))][NMeC]-NH2
modifications: thioether N-12
SMILES: CC[C@H](C)[C@@H]1NC(=O)[C@H]([C@@H](C)OC)NC(=O)[C@H](Cc2ccc(C(=O)O)cc2)NC(=O)[C@H](CCC(N)=O)N(C)C(=O)[C@H](CC(=O)O)NC(=O)[C@H](CCOC)N(C)C(=O)[C@H](CCC(N)=O)N(C)C(=O)CSC[C@@H](C(N)=O)N(C)C(=O)[C@H](Cc2ccc(-c3cnn(C)c3)cc2)NC(=O)CNC(=O)[C@H](Cc2ccc3ccncc3c2)N(C)C(=O)[C@H](Cc2ccc(OCC(=O)O)cc2)NC1=O
- Kd [1]: 3.8 nM

B5: Lu-C-31 (peptide)
peptide: Ac-[NMeK](DOTA‑Lu)[NMeI]D[NMeQ][Phe(4-COOH)][TMe]I[F4aao][NMeAla(isoquinolin-7-yl)]G[3Pal(6-Ph)][NMeC][dE]-NH2
modifications: bridge N-12; not fully specified (bridges); printed as MeK(DOTA-Lu)-MeI-D-MeQ-F4COO-TMe-I-F4aao-MeNal27N-G-3Py6Ph-MeC-de-NH2
- Kd [1]: 7.05 nM
